Results reported in the supplement of paper PMC6755084.

B1: F1*; the commonest letter at each place (parent)
chain: GAGACCGCAACTGAAAAGTTGTTATCACTTGTCGTAAGACACTTTGGATGGGTTGAAGTTCTGCACGTAGAAGCAAAAGGC

Variants of: B1
Experiment: fraction ligated after 30 min (ligated reads / total reads); higher = more ligase activity
Conditions: with F1*sub RNA substrate (template-directed ligation), 42 °C
Procedure: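 Chip-synthesised pool of F1* ligase ribozyme variants (all single and double substitutions, single, double and triple deletions in the catalytic core and GAA bulge, plus designed variants) was transcribed with T7 and reacted as a pool with excess substrate F1*sub for 30 min at 42 C in 50 mM EPPS pH 8.5, 25 mM MgCl2. Ligated and unligated bands were separated by PAGE, barcoded by RT and deep sequenced; fraction ligated = ligated reads / total reads per variant, relative activity = FL / FL of wild type (0.826). Sequences are the DNA template of the ribozyme.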

Q: With GAGACCGCAACTGAAAAGTTGTTTTCGCTTGTCGTAAGACACTTTGGATGGGTTGAAGTTCTGCACGTAGAAGCAAAAGGC [A24T A27G] as the variant, how does the fraction ligated read?
A: 0.748

Q: GAGACCGCAACTGAAAAGTTGTTTTCCCTTGTCGTAAGACACTTTGGATGGGTTGAAGTTCTGCACGTAGAAGCAAAAGGC [A24T A27C] was tested. Which fraction ligated did it give?
A: 0.737

Q: GAGACCGCAACTGAAAAGTTGTTTTCTCTTGTCGTAAGACACTTTGGATGGGTTGAAGTTCTGCACGTAGAAGCAAAAGGC [A24T A27T] was tested. Which fraction ligated did it give?
A: 0.712

Q: With GAGACCGCAACTGAAAAGTTGTTTTCACTTGTCGTACGACACTTTGGATGGGTTGAAGTTCTGCACGTAGAAGCAAAAGGC [A24T A37C] as the variant, how does the fraction ligated read?
A: 0.77

Q: How did the fraction ligated turn out when GAGACCGCAACTGAAAAGTTGTTTTCACTTGTCGTATGACACTTTGGATGGGTTGAAGTTCTGCACGTAGAAGCAAAAGGC [A24T A37T] was run?
A: 0.786

Q: GAGACCGCAACTGAAAAGTTGTTTTCACTTGTCGTAGGACACTTTGGATGGGTTGAAGTTCTGCACGTAGAAGCAAAAGGC [A24T A37G] was tested. Which fraction ligated did it give?
A: 0.792

Q: GAGACCGCAACTGAAAAGTTGTTTTCACTTGTCGTAAGACACTTTGGATAGGTTGAAGTTCTGCACGTAGAAGCAAAAGGC [A24T G50A] was tested. Which fraction ligated did it give?
A: 0.265

Q: GAGACCGCAACTGAAAAGTTGTTTTCACTTGTCATAAGACACTTTGGATGGGTTGAAGTTCTGCACGTAGAAGCAAAAGGC [A24T G34A] was tested. Which fraction ligated did it give?
A: 0.789

Q: For GAGACCGCAACTGAAAAGTTGTTTTCACTTGTCCTAAGACACTTTGGATGGGTTGAAGTTCTGCACGTAGAAGCAAAAGGC [A24T G34C], which fraction ligated is on record?
A: 0.557

Q: GAGACCGCAACTGAAAAGTTGTTTTCACTTGTCTTAAGACACTTTGGATGGGTTGAAGTTCTGCACGTAGAAGCAAAAGGC [A24T G34T] was tested. Which fraction ligated did it give?
A: 0.76

Q: GAGACCGCAACTGAAAAGTTGTTTTCACTTGTCGTAAGACGCTTTGGATGGGTTGAAGTTCTGCACGTAGAAGCAAAAGGC [A24T A41G] was tested. Which fraction ligated did it give?
A: 0.72

Q: GAGACCGCAACTGAAAAGTTGTTTTCACTTGTCGTAAGACTCTTTGGATGGGTTGAAGTTCTGCACGTAGAAGCAAAAGGC [A24T A41T] was tested. Which fraction ligated did it give?
A: 0.785

Q: For GAGACCGCAACTGAAAAGTTGTTTTCACTTGTCGTAAGACCCTTTGGATGGGTTGAAGTTCTGCACGTAGAAGCAAAAGGC [A24T A41C], which fraction ligated is on record?
A: 0.184

Q: How did the fraction ligated turn out when GAGACCGCAACTGAAAAGTTGTTTTCACTTGTCGTCAGACACTTTGGATGGGTTGAAGTTCTGCACGTAGAAGCAAAAGGC [A24T A36C] was run?
A: 0.805

Q: With GAGACCGCAACTGAAAAGTTGTTTTCACTTGTCGTGAGACACTTTGGATGGGTTGAAGTTCTGCACGTAGAAGCAAAAGGC [A24T A36G] as the variant, how does the fraction ligated read?
A: 0.519

Q: How did the fraction ligated turn out when GAGACCGCAACTGAAAAGTTGTTTTCACTTGTCGTTAGACACTTTGGATGGGTTGAAGTTCTGCACGTAGAAGCAAAAGGC [A24T A36T] was run?
A: 0.794

Q: With GAGACCGCAACTGAAAAGTTGTTTTCACTTGTCGTAAGACACTTTGGCTGGGTTGAAGTTCTGCACGTAGAAGCAAAAGGC [A24T A48C] as the variant, how does the fraction ligated read?
A: 0.499

Q: For GAGACCGCAACTGAAAAGTTGTTTTCACTTGTCGTAAGACACTTTGGTTGGGTTGAAGTTCTGCACGTAGAAGCAAAAGGC [A24T A48T], which fraction ligated is on record?
A: 0.00859

Q: With GAGACCGCAACTGAAAAGTTGTTTTCACTTGTCGTAAGACACTTTGGGTGGGTTGAAGTTCTGCACGTAGAAGCAAAAGGC [A24T A48G] as the variant, how does the fraction ligated read?
A: 0.214

Q: Which fraction ligated does the source give for GAGACCGCAACTGAAAAGTTGTTTTCACTTGTCGTAAGACACTTTGTATGGGTTGAAGTTCTGCACGTAGAAGCAAAAGGC [A24T G47T] here?
A: 0.108

Q: GAGACCGCAACTGAAAAGTTGTTTTCACTTGTCGTAAGACACTTTGCATGGGTTGAAGTTCTGCACGTAGAAGCAAAAGGC [A24T G47C] was tested. Which fraction ligated did it give?
A: 0.0331

Q: With GAGACCGCAACTGAAAAGTTGTTTTCACTTGTCGTAAGACACTTTGAATGGGTTGAAGTTCTGCACGTAGAAGCAAAAGGC [A24T G47A] as the variant, how does the fraction ligated read?
A: 0.797

Q: GAGACCGCAACTGAAAAGTTGTTTTCACTTTTCGTAAGACACTTTGGATGGGTTGAAGTTCTGCACGTAGAAGCAAAAGGC [A24T G31T] was tested. Which fraction ligated did it give?
A: 0.0661

Q: With GAGACCGCAACTGAAAAGTTGTTTTCACTTCTCGTAAGACACTTTGGATGGGTTGAAGTTCTGCACGTAGAAGCAAAAGGC [A24T G31C] as the variant, how does the fraction ligated read?
A: 0.0424

Q: Which fraction ligated does the source give for GAGACCGCAACTGAAAAGTTGTTTTCACTTATCGTAAGACACTTTGGATGGGTTGAAGTTCTGCACGTAGAAGCAAAAGGC [A24T G31A] here?
A: 0.0391

Q: With GAGACCGCAACTGAAAAGTTGTTGTCACTTGTCGTAAGACACTTTGGAAGGGTTGAAGTTCTGCACGTAGAAGCAAAAGGC [A24G T49A] as the variant, how does the fraction ligated read?
A: 0.742

Q: Which fraction ligated does the source give for GAGACCGCAACTGAAAAGTTGTTGTCACTTGTCGTAAGACACTTTGGAGGGGTTGAAGTTCTGCACGTAGAAGCAAAAGGC [A24G T49G] here?
A: 0.731

Q: How did the fraction ligated turn out when GAGACCGCAACTGAAAAGTTGTTGTCACTTGTCGTAAGACACTTTGGACGGGTTGAAGTTCTGCACGTAGAAGCAAAAGGC [A24G T49C] was run?
A: 0.731

Q: Which fraction ligated does the source give for GAGACCGCAACTGAAAAGTTGTTGTCACTTGTCGTAAGACACTTAGGATGGGTTGAAGTTCTGCACGTAGAAGCAAAAGGC [A24G T45A] here?
A: 0.22

Q: GAGACCGCAACTGAAAAGTTGTTGTCACTTGTCGTAAGACACTTGGGATGGGTTGAAGTTCTGCACGTAGAAGCAAAAGGC [A24G T45G] was tested. Which fraction ligated did it give?
A: 0.0477

Q: GAGACCGCAACTGAAAAGTTGTTGTCACTTGTCGTAAGACACTTCGGATGGGTTGAAGTTCTGCACGTAGAAGCAAAAGGC [A24G T45C] was tested. Which fraction ligated did it give?
A: 0.0441

Q: With GAGACCGCAACTGAAAAGTTGTTTTCAATTGTCGTAAGACACTTTGGATGGGTTGAAGTTCTGCACGTAGAAGCAAAAGGC [A24T C28A] as the variant, how does the fraction ligated read?
A: 0.492

Q: With GAGACCGCAACTGAAAAGTTGTTTTCATTTGTCGTAAGACACTTTGGATGGGTTGAAGTTCTGCACGTAGAAGCAAAAGGC [A24T C28T] as the variant, how does the fraction ligated read?
A: 0.794

Q: How did the fraction ligated turn out when GAGACCGCAACTGAAAAGTTGTTTTCAGTTGTCGTAAGACACTTTGGATGGGTTGAAGTTCTGCACGTAGAAGCAAAAGGC [A24T C28G] was run?
A: 0.373
